# Measurements reported in PMC10401002.
# Molecular target: endogenous human glyceraldehyde 3-phosphate dehydrogenase (GAPDH), 3xFLAG-tagged by CRISPR/Cas9 knock-in (human (endogenous in HEK293T)) (UniProt P04406)
# Test: cryo-EM structure; single-particle cryo-EM of endogenous 3xFLAG-tagged protein purified from HEK293T (anti-FLAG M2, SEC in TBS) on amine-modified graphene oxide grids; GAPDH also from cytosol and nuclei after 8 and 24 h of oxidative stress (1 mM H2O2, 10 mM L-Arg)
# endogenous human glyceraldehyde 3-phosphate dehydrogenase (GAPDH), 3xFLAG-tagged by CRISPR/Cas9 knock-in, P04406 1-335 (enzyme; other documents disagree on this pair), sequence (P04406 whole entry): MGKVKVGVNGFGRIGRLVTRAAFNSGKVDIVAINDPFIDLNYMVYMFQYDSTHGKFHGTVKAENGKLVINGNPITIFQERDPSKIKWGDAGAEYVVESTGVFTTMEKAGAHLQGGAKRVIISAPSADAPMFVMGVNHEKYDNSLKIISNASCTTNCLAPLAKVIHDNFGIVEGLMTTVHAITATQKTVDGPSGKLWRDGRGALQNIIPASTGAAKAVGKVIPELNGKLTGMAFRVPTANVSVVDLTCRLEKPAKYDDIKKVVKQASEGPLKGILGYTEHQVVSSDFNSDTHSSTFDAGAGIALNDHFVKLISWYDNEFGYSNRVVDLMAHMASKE
substance,measurement,value
"endogenous human glyceraldehyde 3-phosphate dehydrogenase (GAPDH), 3xFLAG-tagged by CRISPR/Cas9 knock-in, P04406 1-335 (enzyme; other documents disagree on this pair)",stoichiometry N,4
